Assay results reported in article PMC3515998.

Molecular target: Gαi/o proteins (human (endogenous in HEK293T)) (UniProt P63096)
Chain of UniProt P63096 (P63096 whole entry): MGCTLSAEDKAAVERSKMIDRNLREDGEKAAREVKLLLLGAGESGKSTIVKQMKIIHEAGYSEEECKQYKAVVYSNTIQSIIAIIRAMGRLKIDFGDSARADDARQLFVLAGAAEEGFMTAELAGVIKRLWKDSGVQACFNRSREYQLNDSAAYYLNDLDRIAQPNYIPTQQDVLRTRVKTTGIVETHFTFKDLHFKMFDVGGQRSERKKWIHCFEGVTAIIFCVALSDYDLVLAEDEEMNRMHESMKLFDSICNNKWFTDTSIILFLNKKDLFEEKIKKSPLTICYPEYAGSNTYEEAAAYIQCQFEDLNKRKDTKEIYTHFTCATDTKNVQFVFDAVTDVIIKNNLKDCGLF

Row | Substance | EC50 of MCH for stimulation of [35S]GTPγS binding to membranes of transfected HEK293T cells (0.001-1000 nM MCH, 30 min, 30°C) | basal [35S]GTPγS binding to membranes (no MCH), percent of Flag-MCHR1 | maximal [35S]GTPγS binding to membranes with 1 μM MCH, percent of basal
1 | F318K mutant of Flag-tagged rat MCHR1 (from UniProt P97639 1-353) (receptor) | 470 pM | 97.6% | 191 % of basal
2 | Flag-MCHR1 (rat melanin-concentrating hormone receptor 1 with a Flag epitope tag before the first methionine) (from UniProt P97639 1-353) | 230 pM | – | 208 % of basal
